Source: patent US20220089710A1, “Method of Treating Signs and Symptoms of Osteoarthritis” (Pfizer Inc., priority 2019, published 2022)

Columns and labels:
[1] = system: patients with OA of the knee or hip; experiment: Example 2: safety, including adjudication of joint safety events; assay type: in vivo, human
From the text: Key inclusion criteria were Western Ontario and McMaster Universities Osteoarthritis Index (WOMAC) Pain and Physical Function scores in the index joint; a Patient Global Assessment of OA (PGA-OA) score of fair, poor, or very poor; a history of insufficient pain relief or intolerance to acetaminophen, oral NSAID, and either tramadol or opioids (or unwilling to take opioids). […] Co-primary endpoints were change from baseline in WOMAC Pain, WOMAC Physical Function, and PGA-OA scores at week 24 compared with placebo. Three key secondary endpoints were: reduction in the WOMAC Pain subscale of 50%, at Week 24, WOMAC Pain subscale change from Baseline to Week 2, and weekly average pain score (based on daily diary) in the index joint change from Baseline to Week 1. Safety, including adjudication of joint safety events, was assessed.

[2] = target: NGF (Homo sapiens, UniProt P01138); conditions: cited from earlier work
Sequence of NGF (P01138 122-241): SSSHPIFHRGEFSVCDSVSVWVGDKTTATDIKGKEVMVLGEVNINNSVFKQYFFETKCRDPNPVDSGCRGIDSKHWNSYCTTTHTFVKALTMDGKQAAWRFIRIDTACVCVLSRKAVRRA

[3] = system: patients with moderate to severe OA of the hip or knee; experiment: Example 1: adjudicated joint safety events (RPOA, TJR); assay type: in vivo, human
Protocol: Investigators performed musculoskeletal examinations at each study visit. Investigators evaluated patients reporting increased severe or persistent pain via eDiary lasting […] to determine if additional follow-up was needed. Post-baseline x-rays (scheduled or for cause) were assessed by the central reader for possible or probable RPOA, subchondral insufficiency fracture, primary osteonecrosis, or pathologic fracture. If warranted, magnetic resonance imaging scans were performed and/or patients were referred to an orthopedic surgeon. All cases of possible or probable joint safety events or cases of TJR for any reason were adjudicated by a blinded Adjudication Committee consisting of orthopedic surgery, rheumatology, orthopedic pathology, and musculoskeletal radiology experts.

[4] = both tanezumab regimens pooled (n=464)

tanezumab: humanized immunoglobulin G Type 2 (IgG2) monoclonal antibody directed against human nerve growth factor (NGF); SEQ ID NOs: 9 or 11 and 10
Pre-specified composite joint safety endpoint events: % of patients ([1]; 2.5 mg SC): 1.8%
TJRs: % of patients ([1]; 2.5 mg SC): 7.8%
Treatment-emergent AEs: % of patients ([1]; 2.5 mg SC): 53%
incidence of serious AEs ([1]; 2.5 mg SC): 2.8%
Pre-specified composite joint safety endpoint events: % of patients ([1]; 5 mg SC): 3.2%
TJRs: % of patients ([1]; 5 mg SC): 7.0%
Treatment-emergent AEs: % of patients ([1]; 5 mg SC): 57%
incidence of serious AEs ([1]; 5 mg SC): 3.2%
binding to human NGF [2]: high affinity and specificity
events adjudicated as RPOA (types 1 and 2): % of group ([3]; 2.5 mg group): 2.2%
events adjudicated as RPOA (types 1 and 2): % of group ([3]; 2.5/5 mg group): 0.4%
adjudicated RPOA type 1 (accelerated joint space narrowing): n ([3]; both tanezumab regimens pooled): 4
adjudicated RPOA type 2 (damage or deterioration of the joint): n ([3]; both tanezumab regimens pooled): 2
tanezumab-treated patients with TJRs and adjudicated RPOA ([3]; both tanezumab regimens pooled): 2
adjudicated RPOA (type 1 or 2): % of tanezumab-treated patients [3, 4]: 1.3%
adjudicated RPOA (type 1 or 2): number of tanezumab-treated patients [3, 4]: 6
